Source: paper PMC11992174

Biological target: MtbClpC1^F444S-E288A-E626A (Mycobacterium tuberculosis) (UniProt P9WPC9)
Assay: cryo-EM structure

## MtbClpC1^F444S-E288A-E626A (from UniProt P9WPC9 1-848) (enzyme)
  stoichiometry N: 6
